{"source": "patent US20210285965A1", "about": "(SEATTLE CHILDREN S HOSPITAL D B A SEATTLE CHILDREN S …, published 2021)", "binders": {"B1": {"name": "anti-CYBB 509 monoclonal antibody (antibody, V domains shown)", "VH": "QSLEESGGGLVKPGASLTLTCTASGFSFSRSYWICWVRQAPGKGLEWLGCIYAGSSGSTYYASWAKGRFTISKTSSTTVTLQMTSLTAADTATYFCARGNNNIIILDLWGPGILVTVSS", "VL": "AVLTQTPSPVSAAVGGTVTISCQASQSVYNNNALSWYQQKPGQPPKLLIYDASDLAPGVPSRFSGSGSGTQFTLTISDVQCDDAATYYCLGGYSVSSDNAFGGGTEVVVNG", "notes": "Full heavy and light chains without leader; also called clone EB0611C-1E12-H2 / EB0611C-1E12-K2"}, "B2": {"name": "anti-ADA 93 monoclonal antibody (antibody, V domains shown)", "VH": "QEQLEESGGDLVKPGSSLTLTCTASGFSFTNSDWECWVRQAPGKGLEWIACIYGDSRSGYYASWAKGRFTISKTSSTTVTLQMTTLTAADTATYFCARNLGSLWGPGTLVTVSS", "VL": "QVLTQTPSSVSAAVGGTVTINCQSSQNVVFNNRLAWFQQKPGQPPKLLIYQASTLASGVPPRFKGSGSGTQFTLTISDLECDDAATYYCLGSYDCSSTDCNTFGGGTEVVVKG", "notes": "Full heavy and light chains without leader; also called clone EB0608A-3C12-H2 / EB0608A-3C12-K2"}, "B3": {"name": "anti-DOCK8 1272 monoclonal antibody (antibody, V domains shown)", "VH": "EVQLQQSGTVLARPGASVKMSCKASGYTFTSYWMHWVKQRPGQGLEWIGAIFPGNSNTRYNQKFKGKAKLTAVTSASTAYMELSSLTNEDSAVYYCADDNAFDYWGQGTTLTVSS", "VL": "QIVLTQSPAIMSASPGEKVTMTCSASSSVSSRYLHWYQQKSGASPKLWIYGTSNLSSGVPDRFSGSGSGTSYSLTISSVETEDAATYYCQQYHSDPFTFGTGTKLEIK", "notes": "Hybridoma antibody; also called Hybridoma SJSH5-1C2-2E"}, "B4": {"name": "anti-ATM 1561 monoclonal antibody (antibody, V domains shown)", "VH": "QEQLVESGGGLVQPGGSLTLTCKASGFDFSSGGMCWVRQAPGKGLEWIGCIVNGDGSTYFATWAKGRFTITRTSSTTVTLQMTSLTAADTATYFCWRYWALWGPGTLVTVSS", "VL": "IVMTQTPSSKSVPVGGTVTINCQASESLYNNNRLAWFQQKPGQPPKLLIYSASTLASGVPDRFSGSGSGTQFTLTISDVVCDDAATYYCVGGRSRVTDGIAFGGGTEAVVKG", "notes": "Full heavy and light chains without leader; also called clone EB0608D-4A10-H4 / EB0608D-4A10-K1"}, "B5": {"name": "anti-SH2D1A (SAP) 19 monoclonal antibody (antibody, V domains shown)", "VH": "QSLEESGGRLVTPGGTLTLTCTVSGFSLSSYDMSWVRQAPGKGLEWIGFGNTGGSTYYASWAKGRFTISRTSTTVDLRMTSLTAADTATYFCTRGAPGWITTNMWGPGTLVTVSL", "VL": "QVLTQTPSPVSAAVGGTVTISCQSSQSVYRNKCLAWYQQKPGQPPKLLIYKASTLASGVPSRFSGSGSGTQFTFTISDLECDDSATYYCVGYYNTNTNTTTFGGGTEVVVKG", "notes": "Full heavy and light chains without leader; also called Anti-SH2D1A 19; clone EB0612B-2F4-H1 / EB0612B-2F4-K1"}, "B6": {"name": "anti-CD42 128 monoclonal antibody (antibody, V domains shown)", "VH": "QAYLQQSGAVLVRPGASVKMSCKASGYTFSSYNIHWVKQTPRQGLEWIGGIYPGNGDTSYNKKFKDKATLTVDKSSNTAYMHLSSLTSEDSAVFFCASDGTRYWGQGTTLTVSS", "VL": "EVVMTQTPLTLSVTIGQAVSISCTSSQSLLASDGKTYLNWLLQRPGQSPKRLIYLVSKLDSGVPDRFTGSGSGTDFTLKISRVEADDLGVYCCWQGAHSPLTFGAGTRLELK", "notes": "Hybridoma antibody; also called Hybridoma SJSH4 3B8-1b"}, "B7": {"name": "anti-CD42 154 monoclonal antibody (antibody, V domains shown)", "VH": "EVQLQQSGPELVKPGASVKMSCKASGYTFTGYNMHWVKQSHGKSLEWIGDINPKTGENSYNQKFKGKATLTISKSSSTAYMELRSLTSEDSAVYYCVRWGVYYLDHWGQGTTLTVSS", "VL": "DIVMTQAAFSNPVTLGTSASISCRSTKSLLYSDGITYLYWYLQRPGQSPQLLIYRMSDLASGVPDRFSGSGSGTDFTLRISRVEAEDVGVYYCAQMVEFPPTFGGGTKLEIK", "notes": "Hybridoma antibody; also called Hybridoma SJSH4-1H11c"}, "B8": {"name": "anti-CD56 122 monoclonal antibody (antibody, V domains shown)", "VH": "QSLEESGGDLVKPGASLTLTCKASGLDFSSNYYMCWVRQAPGKGLEWIACIYSSSLNTWYASWAKGRFTISKSTSLHTVTLQMTSLTAADTATYFCTRGGGVYVGADYGFYFYLWGPGTLVTVSS", "VL": "DIVMTQTPSSVEAPVGGTVTIKCQASQSIDSWCAWYQQKPGQPPKLLIYKASTLESGVPSRFKGSGSGTEFTLTISDLECADAATYFCQSYYPTTGSDNAFGGGTEVVVKG", "notes": "Full heavy and light chains without leader; also called clone EB0608C-3H4-H2 / EB0608C-3H4-K2"}}, "test_in_all_cases": "immunoaffinity peptide capture on mAb-Protein G magnetic beads, read by SRM-MS (immuno-SRM); ELISA screening", "key": {"[1]": {"target": "T1, CYBB 509-521 signature peptide (TLYGRPNWDNEFK)", "T1 construct": "Endogenous tryptic peptide of CYBB from digested dried blood spots of patients and normal controls", "T1 peptide": "TLYGRPNWDNEFK"}, "[2]": {"target": "T2, ADA 93-101 signature peptide (EGVVYVEVR) (human)", "T2 peptide": "EGVVYVEVR"}, "[3]": {"target": "T3, DOCK8 1272-1283 signature peptide (TSGIVLSSLPYK)", "T3 construct": "Endogenous tryptic peptide of DOCK8 from digested dried blood spots of patients and normal controls", "T3 peptide": "TSGIVLSSLPYK"}, "[4]": {"target": "T4, ATM 1561-1572 signature peptide (LLDPFPDHVVFK)", "T4 construct": "Endogenous tryptic peptide of ATM from digested dried blood spots of normal controls", "T4 peptide": "LLDPFPDHVVFK"}, "[5]": {"target": "T5, SH2D1A 19-32 signature peptide (LLLATGLDGSYLLR)", "T5 construct": "Tryptic peptide of SH2D1A (SAP); also called SAP", "T5 peptide": "LLLATGLDGSYLLR"}, "[6]": {"target": "T6, CD42 128-137 signature peptide (LTSLPLGALR)", "T6 construct": "Endogenous tryptic peptide of CD42 (glycoprotein Ib) from digested dried blood spots of patients and normal controls", "T6 peptide": "LTSLPLGALR"}, "[7]": {"target": "T7, CD42 154-165 signature peptide (TLPPGLLTPTPK)", "T7 construct": "Endogenous tryptic peptide of CD42 (glycoprotein Ib) from digested dried blood spots of patients and normal controls", "T7 peptide": "TLPPGLLTPTPK"}, "[8]": {"target": "T8, CD56 122-130 signature peptide (NAPTPQEFR)", "T8 construct": "Endogenous tryptic peptide of CD56 (NCAM) from digested dried blood spots of patients and normal controls", "T8 peptide": "NAPTPQEFR"}}}
{"binder": "B1", "values": [{"measurement": "binding result", "setting": "[1]", "result": "binds"}]}
{"binder": "B2", "values": [{"measurement": "binding result", "setting": "[2]", "result": "binds"}]}
{"binder": "B3", "values": [{"measurement": "binding result", "setting": "[3]", "result": "binds"}]}
{"binder": "B4", "values": [{"measurement": "binding result", "setting": "[4]", "result": "binds"}]}
{"binder": "B5", "values": [{"measurement": "binding result", "setting": "[5]", "result": "binds"}]}
{"binder": "B6", "values": [{"measurement": "binding result", "setting": "[6]", "result": "binds"}]}
{"binder": "B7", "values": [{"measurement": "binding result", "setting": "[7]", "result": "binds"}]}
{"binder": "B8", "values": [{"measurement": "binding result", "setting": "[8]", "result": "binds"}]}
